One assay relates to human LUAD organoids. Description: Human LUAD organoid viability / cisplatin-induced killing. In kind it is cell-based. The source says: To date, the first line therapy for advanced KRAS-mutant lung adenocarcinoma (LUAD) consists of platinum-based chemotherapy in combination with the immune checkpoint inhibitor, pembrolizumab, or pembrolizumab alone in patients whose tumors have PD-L1 expression equal or greater than 50%. […] However, tumor resistance to platinum and toxicity is limited in its effectiveness, necessitating the development of strategies to increase sensitivity to cisplatin-induced killing and increase responsiveness to immune checkpoint inhibitors. Increases in GSH contribute to resistance of cisplatin-induced killing. In one study we administered 20 μg/ml of GLRX to human LUAD organoids in the presence or absence of cisplatin.

A further assay has as its system SLC7A11. Put plainly: SLC7A11 levels in H522 LUAD cells. In kind it is cell-based. The conditions noted are these: administration of GLRX to H522 LUAD cells. How it is done:
Bio-Rad DC protein estimation kit was used to determine protein concentration in cell lysates. Equal amounts of proteins were resolved using sodium dodecyl sulfate (SDS)-polyacrylamide gel electrophoresis and transferred to polyvinylidene difluoride (PVDF) membranes, blocked in 5% BSA and incubated with primary antibodies overnight. Membranes were subsequently incubated with peroxidase-conjugated secondary antibodies for one hour and then visualized using chemiluminescence.

A further assay concerns OTUB1. Put plainly: OTUB1-SSG: GSH immunoprecipitation followed by OTUB1 Western blot. As to conditions: cells treated with recombinant protein. It counts as cell-based, mouse. On the procedure:
OTUB1 was one of the PSSG targets detected in IL1B-stimulated epithelial cells raising the possibility that S-glutathionylation of OTUB1 affects the stability of SLC7A11. To investigate this, immunoprecipitation of GSH followed by Western Blotting of OTUB1 in MTE cells treated with vehicle or IL1B was performed. Dithiothreitol (DTT) was incubated with cell lysates prior to immunoprecipitation as a negative control. OTUB1 levels from whole cell lysates were used as the input control. Increases in OTUB1 S-glutathionylation (OTUB1-SSG) in response to IL1B were observed, with further increases occurring in cells lacking Glrx (FIG. 4G), consistent with the role of GLRX as a deglutathionylating enzyme. Western blots were performed using cells treated with the WT- or C23S-mutant GLRX recombinant protein to examine the presence of glutaredoxin (FIG. 4H) and total PSSG (FIG. 4I) (P-value*<0.05, **<0.01, ***<0.001, ****<0.0001). GAPDH was used as a loading control. Glutathione was evaluated in MTE cells treated with recombinant WT- or C23S-mutant GLRX (FIG. 4J) and glutamate in cell culture supernatant of MTE cells treated with WT or the C23S mutant GLRX was also evaluated (FIG. 4K). […]
(In western blotting, separated proteins are transferred to a membrane and probed.)

Assay [1] concerns mouse tracheal epithelial (MTE) cells. Description: Extracellular glutamate in cell culture supernatant of MTE cells. It counts as cell-based. As to conditions: direct administration of recombinant protein to MTE cells. The source says:
A regulator of GSH homeostasis is the transporter system xC-, which exports glutamate and concomitantly imports cystine in a 1:1 ratio. Once inside the cells, cystine is reduced to two cysteines, the latter being the rate limiting amino acid required for GSH synthesis. These relationships were examined further. […] To address whether IL1B-induced increases in GSH are system xC- dependent, two system xC- inhibitors, erastin (Er) and sulfasalazine (SAS) were used. Cells were pretreated for one hour, followed by IL1B treatment for 24 hours. Then, GSH levels were measured in cells exposed to increasing doses of Er or SAS (FIG. 2G). Extracellular glutamate levels in cell culture supernatant of cells pretreated with 0.5 micromolar Er (left) or 100 micromolar SAS (right) for 1 hour before IL1B stimulation were also measured (FIG. 2H). […] System xC- inhibition is known to induce ferroptosis, an iron-dependent mode of cell death characterized by increased lipid peroxidation. However, no changes in cell viability using erastin (5 micromolar) or sulfasalazine (500 micromolar) were detected (FIG. 2I; P-value*<0.05, ***<0.001, ****<0.0001).
Primary mouse tracheal epithelial (MTE) cells were isolated from C57BL/6NJ wild-type or C57BL6/NJ mice lacking Glrx1 gene and cultured. Cells were grown on collagen coated plastic plates or transwell inserts with media change every 2 days until confluency. For interleukin 1B (IL1B) treatment: cells were incubated in plain Dulbecco's Modified Eagle Medium (DMEM): F12 media containing 6 mM glucose and 2 mM glutamine overnight followed by stimulation with 10 ng/ml IL1B or 0.1% bovine serum albumin (BSA) in phosphate buffered saline (PBS) (vehicle control) for 24 hours. Treatment with crastin, sulfasalazine or BSO occurred 1 hour before IL1B stimulation. Media and cells were collected for further analysis. For growing H522 and OTUB1-CRISPR-H522 cells: Roswell Park Memorial Institute (RPMI) media supplemented with 10% fetal bovine serum (FBS) and 1% pen/strep was used to grow the cells. Plasmid over-expression and OTUB1 knock-down experiments were done when cells were 60-70% confluent.
Glutamate in media was measured using Biovision kit following manufacturer's protocol.

The next assay relates to KRAS-mutant A549 cells. Description: A549 cell viability / cisplatin-induced killing. In kind it is cell-based.

B1: GLRX: recombinant wild-type glutaredoxin protein, deglutathionylating enzyme, administered directly to cells (protein, UniProt P35754 2-106, looked up)
Glutaredoxin-1: AQEFVNCKIQPGKVVVFIKPTCPYCRRAQEILSQLPIKQGLLEFVDITATNHTNEIQDYLQQLTGARTVPRVFIGKDCIGGCSDLVSLQQSGELLTRLKQIGALQ
In the case of B1, the “viability of human LUAD organoids” value in the assay on human LUAD organoids (20 μg/ml GLRX alone) was “did not affect”. Besides, the “sensitivity to cisplatin-induced tumor organoid killing” value with human LUAD organoids (20 μg/ml GLRX with cisplatin, compared to cisplatin only) is listed as “strongly increased”. In addition, the SLC7A11 levels entry with SLC7A11 is listed as “decreased”. For the same molecule, the “OTUB1-SSG (OTUB1 S-glutathionylation)” value with OTUB1 is on record as “decreased”. Also, the extracellular glutamate entry in assay [1] is “decreased”. The viability entry in the assay on KRAS-mutant A549 cells (GLRX alone) is “did not decrease”. The cisplatin-induced killing result in the assay on KRAS-mutant A549 cells (GLRX with cisplatin) is “promoted”.

For the origin of these results see US20260027190A1, “OVARIAN TUMOR DEUBIQUITINASE OXIDATION AND USES THEREOF” (The University of Vermont and State Agricultural College, priority 2022, published 2026).
